Assay results published in EP4729546A1 (Jiangsu BioJeTay Biotechnology Co., Ltd., dated 2026).

Assays:
[1] = target: huFXII-his (human) (UniProt P00748); assay: cell-based or functional assay
[2] = target: huFXII-his (human) (UniProt P00748); assay: ELISA, huFXII-his coated at 1 µg/ml, HRP anti-human secondary, OD450

huFXII-his (human), sequence (P00748 20-615, form in doubt): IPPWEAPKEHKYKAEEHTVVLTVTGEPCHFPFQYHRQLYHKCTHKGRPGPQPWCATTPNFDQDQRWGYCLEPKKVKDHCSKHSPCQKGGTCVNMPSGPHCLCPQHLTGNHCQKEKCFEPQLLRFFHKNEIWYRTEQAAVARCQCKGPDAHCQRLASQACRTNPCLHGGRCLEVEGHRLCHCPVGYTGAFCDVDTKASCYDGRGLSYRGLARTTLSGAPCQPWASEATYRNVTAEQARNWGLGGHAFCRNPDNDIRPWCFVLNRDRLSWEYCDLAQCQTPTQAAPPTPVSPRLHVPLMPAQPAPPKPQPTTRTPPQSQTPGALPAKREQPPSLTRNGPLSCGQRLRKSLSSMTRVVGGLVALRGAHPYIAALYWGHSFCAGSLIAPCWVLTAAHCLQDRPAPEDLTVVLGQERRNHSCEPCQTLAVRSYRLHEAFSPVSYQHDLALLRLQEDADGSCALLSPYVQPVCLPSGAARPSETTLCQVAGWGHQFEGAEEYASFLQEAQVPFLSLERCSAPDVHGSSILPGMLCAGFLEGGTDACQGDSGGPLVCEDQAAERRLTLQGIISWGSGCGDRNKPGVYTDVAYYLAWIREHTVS

B1: FX-Y17-Y2 (antibody, V domains shown)
VH: EVQLLESGGGLVQPGGSLRLSCAGSGFSFGSQTMSWVRQAPGKGLEWVSSISHISGRTYYADSVKGRFTISRDNSKNTLYLQMNSLRAEDTAVYYCTKSHAFDVWGQGTMVTVSS
VL: EIVLTQSPATLSVSPGERATLSCRASQSVYSALAWYQQKPGQAPRLLIYGASTRATGIPARFSGSGSGTEFTLTISSLQSEDFAVYYCQQNNKWPLSFGGGTKVEIK
IC50 of inhibition of cleavage of chemical substrate S2302 by FXIIa (OD405) [1]: 0.0178 µg/mL
EC50 [2]: 0.164 µg/mL

B2: FX-Y17-Y10 (antibody, V domains shown)
VH: EVQLLESGGGLVQPGGSLRLSCAGSGFSFGSQTMSWVRQAPGKGLEWVSSISVISGRAYYADSVKGRFTISRDNSKNTLYLQMNSLRAEDTAVYYCTKAHAFDVWGQGTMVTVSS
VL: EIVLTQSPATLSVSPGERATLSCRASQSVYSALAWYQQKPGQAPRLLIYGASTRATGIPARFSGSGSGTEFTLTISSLQSEDFAVYYCQQYHKWPLSFGGGTKVEIK
IC50 of inhibition of cleavage of chemical substrate S2302 by FXIIa (OD405) [1]: 0.028 µg/mL
EC50 [2]: 0.161 µg/mL

B3: FX-Y17-Y3 (antibody, V domains shown)
VH: EVQLLESGGGLVQPGGSLRLSCAGSGFSFGSQTMSWVRQAPGKGLEWVSSISYISGRTYYADSVKGRFTISRDNSKNTLYLQMNSLRAEDTAVYYCTKSHAFDVWGQGTMVTVSS
VL: EIVLTQSPATLSVSPGERATLSCRASQSVWSNLAWYQQKPGQAPRLLIYGASTRATGIPARFSGSGSGTEFTLTISSLQSEDFAVYYCQQYHKWPLSFGGGTKVEIK
IC50 of inhibition of cleavage of chemical substrate S2302 by FXIIa (OD405) [1]: 0.0154 µg/mL
EC50 [2]: 0.216 µg/mL

B4: FX-Y17-Y30 (antibody, V domains shown)
VH: EVQLLESGGGLVQPGGSLRLSCAGSGFSFGSQTMSWVRQAPGKGLEWVSSISVISGRTYYADSVKGRFTISRDNSKNTLYLQMNSLRAEDTAVYYCAKSHAFDVWGQGTMVTVSS
VL: EIVLTQSPATLSVSPGERATLSCRASQSVFSNLAWYQQKPGQAPRLLIYGASTRATGIPARFSGSGSGTEFTLTISSLQSEDFAVYYCQQYHWWPLSFGGGTKVEIK
IC50 of inhibition of cleavage of chemical substrate S2302 by FXIIa (OD405) [1]: 0.0127 µg/mL
EC50 [2]: 0.083 µg/mL

B5: FX-Y17-Y5 (antibody, V domains shown)
VH: EVQLLESGGGLVQPGGSLRLSCAGSGFSFGSQTMSWVRQAPGKGLEWVSSISVISGRYYYADSVKGRFTISRDNSKNTLYLQMNSLRAEDTAVYYCTKSHAFDVWGQGTMVTVSS
VL: EIVLTQSPATLSVSPGERATLSCRASQSVYSALAWYQQKPGQAPRLLIYGASTRATGIPARFSGSGSGTEFTLTISSLQSEDFAVYYCQQYHKWPLSFGGGTKVEIK
IC50 of inhibition of cleavage of chemical substrate S2302 by FXIIa (OD405) [1]: 0.0254 µg/mL
EC50 [2]: 0.167 µg/mL

B6: FX-Y17-Y13 (antibody, V domains shown)
VH: EVQLLESGGGLVQPGGSLRLSCAGSGFSFGSQTMSWVRQAPGKGLEWVSSISVISRRTYYADSVKGRFTISRDNSKNTLYLQMNSLRAEDTAVYYCTRSHAFDVWGQGTMVTVSS
VL: EIVLTQSPATLSVSPGERATLSCRASQSVYSNLAWYQQKPGQAPRLLIYGASTRATGIPARFSGSGSGTEFTLTISSLQSEDFAVYYCQQYHKWPLSFGGGTKVEIK
IC50 of inhibition of cleavage of chemical substrate S2302 by FXIIa (OD405) [1]: 0.0259 µg/mL
EC50 [2]: 0.128 µg/mL

B7: FX-Y17-Y40 (antibody, V domains shown)
VH: EVQLLESGGGLVQPGGSLRLSCAGSGFSFGSQTMSWVRQAPGKGLEWVSSISVISGRTYYADSVKGRFTISRDNSKNTLYLQMNSLRAEDTAVYYCTKAHAFDVWGQGTMVTVSS
VL: EIVLTQSPATLSVSPGERATLSCRASQSVWSNLAWYQQKPGQAPRLLIYGASTRATGIPARFSGSGSGTEFTLTISSLQSEDFAVYYCQQYHKWPLSFGGGTKVEIK
IC50 of inhibition of cleavage of chemical substrate S2302 by FXIIa (OD405) [1]: 0.0155 µg/mL
EC50 [2]: 0.0781 µg/mL

B8: FX-Y17-Y7 (antibody, V domains shown)
VH: EVQLLESGGGLVQPGGSLRLSCAGSGFSFGSQTMSWVRQAPGKGLEWVSSISVISGRAYYADSVKGRFTISRDNSKNTLYLQMNSLRAEDTAVYYCTKSHAFDVWGQGTMVTVSS
VL: EIVLTQSPATLSVSPGERATLSCRASQSVYSALAWYQQKPGQAPRLLIYGASTRATGIPARFSGSGSGTEFTLTISSLQSEDFAVYYCQQYHKWPLSFGGGTKVEIK
IC50 of inhibition of cleavage of chemical substrate S2302 by FXIIa (OD405) [1]: 0.02 µg/mL
EC50 [2]: 0.136 µg/mL

B9: FX-Y17-Y14 (antibody, V domains shown)
VH: EVQLLESGGGLVQPGGSLRLSCAGSGFSFGSQTMSWVRQAPGKGLEWVSSISHISGRTYYADSVKGRFTISRDNSKNTLYLQMNSLRAEDTAVYYCTKSHRFDVWGQGTMVTVSS
VL: EIVLTQSPATLSVSPGERATLSCRASQSVYSALAWYQQKPGQAPRLLIYGASTRATGIPARFSGSGSGTEFTLTISSLQSEDFAVYYCQQNNKWPLSFGGGTKVEIK
IC50 of inhibition of cleavage of chemical substrate S2302 by FXIIa (OD405) [1]: 0.0138 µg/mL
EC50 [2]: 0.14 µg/mL

B10: FX-Y17-Y31 (antibody, V domains shown)
VH: EVQLLESGGGLVQPGGSLRLSCAGSGFSFGSQTMSWVRQAPGKGLEWVSSISVISGRNYYADSVKGRFTISRDNSKNTLYLQMNSLRAEDTAVYYCAKSHAFDVWGQGTMVTVSS
VL: EIVLTQSPATLSVSPGERATLSCRASQSVWSNLAWYQQKPGQAPRLLIYGASTRATGIPARFSGSGSGTEFTLTISSLQSEDFAVYYCQQYHKWPLSFGGGTKVEIK
IC50 of inhibition of cleavage of chemical substrate S2302 by FXIIa (OD405) [1]: 0.0156 µg/mL
EC50 [2]: 0.117 µg/mL

B11: FX-Y17-Y8 (antibody, V domains shown)
VH: EVQLLESGGGLVQPGGSLRLSCAGSGFSFGSQTMSWVRQAPGKGLEWVSSISVISRRTYYADSVKGRFTISRDNSKNTLYLQMNSLRAEDTAVYYCTKSHAFDVWGQGTMVTVSS
VL: EIVLTQSPATLSVSPGERATLSCRASQSVWSNLAWYQQKPGQAPRLLIYGASTRATGIPARFSGSGSGTEFTLTISSLQSEDFAVYYCQQYHKWPLSFGGGTKVEIK
IC50 of inhibition of cleavage of chemical substrate S2302 by FXIIa (OD405) [1]: 0.0196 µg/mL
EC50 [2]: 0.237 µg/mL

B12: FX-Y17-Y12 (antibody, V domains shown)
VH: EVQLLESGGGLVQPGGSLRLSCAGSGFSFGSQTMSWVRQAPGKGLEWVSSISVISGRTYYADSVKGRFTISRDNSKNTLYLQMNSLRAEDTAVYYCTKWHAFDVWGQGTMVTVSS
VL: EIVLTQSPATLSVSPGERATLSCRASQSLYSHLAWYQQKPGQAPRLLIYGASTRATGIPARFSGSGSGTEFTLTISSLQSEDFAVYYCQQYKKWPLSFGGGTKVEIK
IC50 of inhibition of cleavage of chemical substrate S2302 by FXIIa (OD405) [1]: 0.0296 µg/mL
EC50 [2]: 0.364 µg/mL

B13: FX-Y17-Y37 (antibody, V domains shown)
VH: EVQLLESGGGLVQPGGSLRLSCAGSGFSFGSQTMSWVRQAPGKGLEWVSSISVISGRSYYADSVKGRFTISRDNSKNTLYLQMNSLRAEDTAVYYCTKSHAFDVWGQGTMVTVSS
VL: EIVLTQSPATLSVSPGERATLSCRASQSVWSNLAWYQQKPGQAPRLLIYGASTRATGIPARFSGSGSGTEFTLTISSLQSEDFAVYYCQQYHKWPLSFGGGTKVEIK
IC50 of inhibition of cleavage of chemical substrate S2302 by FXIIa (OD405) [1]: 0.0143 µg/mL
EC50 [2]: 0.0629 µg/mL

B14: FX-Y17-Y9 (antibody, V domains shown)
VH: EVQLLESGGGLVQPGGSLRLSCAGSGFSFGSQTMSWVRQAPGKGLEWVSSISVISGRKYYADSVKGRFTISRDNSKNTLYLQMNSLRAEDTAVYYCAKSHAFDVWGQGTMVTVSS
VL: EIVLTQSPATLSVSPGERATLSCRASQSVYSALAWYQQKPGQAPRLLIYGASTRATGIPARFSGSGSGTEFTLTISSLQSEDFAVYYCQQYHKWPLSFGGGTKVEIK
IC50 of inhibition of cleavage of chemical substrate S2302 by FXIIa (OD405) [1]: 0.0244 µg/mL
EC50 [2]: 0.228 µg/mL
